Reference: paper PMC10692146 (2023)
Where no end group is shown, it is not given here.

Experiments:
[1] = target: T1, reduced p38α (MAPK14), recombinant mouse protein kept with reducing agent (DTT or TCEP) (mouse, UniProt P47811 1-360); assay: ITC; oxidized p38α re-reduced by dialysis with TCEP
[2] = target: T1, reduced p38α (MAPK14), recombinant …; assay: ITC

T1 sequence (P47811 whole entry): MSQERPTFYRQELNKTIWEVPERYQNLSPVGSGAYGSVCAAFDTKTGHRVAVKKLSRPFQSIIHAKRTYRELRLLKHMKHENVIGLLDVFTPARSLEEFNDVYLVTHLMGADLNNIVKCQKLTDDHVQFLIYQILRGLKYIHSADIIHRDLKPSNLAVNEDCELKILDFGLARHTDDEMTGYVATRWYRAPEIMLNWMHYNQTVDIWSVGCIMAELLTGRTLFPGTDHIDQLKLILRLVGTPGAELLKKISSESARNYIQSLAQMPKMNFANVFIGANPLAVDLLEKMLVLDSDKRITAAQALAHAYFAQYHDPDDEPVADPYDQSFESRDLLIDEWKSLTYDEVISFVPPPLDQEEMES

B1: FITC-TAB1 peptide (amino acids 384-412 of TAB1) (peptide)
peptide: RVYPVSVPYSSAQSTSKTSVTLSLVMPSQ
modifications: also: FITC label, end not given here
B1 was tested, and the Kd [1] was 2660 nM and the Kd [2] was 1200 nM.
